Measured values: publication PMC7641331, “Ctf18-RFC and DNA Pol ϵ form a stable leading strand polymerase/clamp loader complex required for normal and perturbed DNA replication” (Nucleic Acids Research, 2019)

How the values were obtained:
[1] = biological target: Pol2CAT, the complete catalytic domain of Pol2 (residues 1–1192), exonuclease-deficient (D290A/E292A) (S. cerevisiae) (UniProt P21951); test: ITC; 170 μM Ctf18-1-8 titrated into 25 μM Pol2CAT in the presence of 50 μM P1P2 DNA; 25°C; 20 mM HEPES pH 7.5, 160 mM NaCl, 1 mM TCEP; 1:1 hetero-association model
[2] = biological target: Pol2 1-528 (Saccharomyces cerevisiae) (UniProt P21951); settings: cited from earlier work
[3] = biological target: T1, Pol2CAT (exonuclease-deficient DNA Pol epsilon catalytic domain) (UniProt P21951 1-1192, D290A;E292A); test: EMSA; 50 nM DNA, no dNTP; EMSA: 25 mM HEPES pH 7.5, 60 mM KCl, 10% glycerol, 1 mM TCEP, 50 nM P1P2*, 20 min on ice, 6% Tris-glycine gel at 4 C; settings: protein: recombinant; tags: N-terminal His (pETM14); label: 5' Cy3 on P1; 5' overhang 5 nt on P2 (template); 11 bp duplex
T1 sequence: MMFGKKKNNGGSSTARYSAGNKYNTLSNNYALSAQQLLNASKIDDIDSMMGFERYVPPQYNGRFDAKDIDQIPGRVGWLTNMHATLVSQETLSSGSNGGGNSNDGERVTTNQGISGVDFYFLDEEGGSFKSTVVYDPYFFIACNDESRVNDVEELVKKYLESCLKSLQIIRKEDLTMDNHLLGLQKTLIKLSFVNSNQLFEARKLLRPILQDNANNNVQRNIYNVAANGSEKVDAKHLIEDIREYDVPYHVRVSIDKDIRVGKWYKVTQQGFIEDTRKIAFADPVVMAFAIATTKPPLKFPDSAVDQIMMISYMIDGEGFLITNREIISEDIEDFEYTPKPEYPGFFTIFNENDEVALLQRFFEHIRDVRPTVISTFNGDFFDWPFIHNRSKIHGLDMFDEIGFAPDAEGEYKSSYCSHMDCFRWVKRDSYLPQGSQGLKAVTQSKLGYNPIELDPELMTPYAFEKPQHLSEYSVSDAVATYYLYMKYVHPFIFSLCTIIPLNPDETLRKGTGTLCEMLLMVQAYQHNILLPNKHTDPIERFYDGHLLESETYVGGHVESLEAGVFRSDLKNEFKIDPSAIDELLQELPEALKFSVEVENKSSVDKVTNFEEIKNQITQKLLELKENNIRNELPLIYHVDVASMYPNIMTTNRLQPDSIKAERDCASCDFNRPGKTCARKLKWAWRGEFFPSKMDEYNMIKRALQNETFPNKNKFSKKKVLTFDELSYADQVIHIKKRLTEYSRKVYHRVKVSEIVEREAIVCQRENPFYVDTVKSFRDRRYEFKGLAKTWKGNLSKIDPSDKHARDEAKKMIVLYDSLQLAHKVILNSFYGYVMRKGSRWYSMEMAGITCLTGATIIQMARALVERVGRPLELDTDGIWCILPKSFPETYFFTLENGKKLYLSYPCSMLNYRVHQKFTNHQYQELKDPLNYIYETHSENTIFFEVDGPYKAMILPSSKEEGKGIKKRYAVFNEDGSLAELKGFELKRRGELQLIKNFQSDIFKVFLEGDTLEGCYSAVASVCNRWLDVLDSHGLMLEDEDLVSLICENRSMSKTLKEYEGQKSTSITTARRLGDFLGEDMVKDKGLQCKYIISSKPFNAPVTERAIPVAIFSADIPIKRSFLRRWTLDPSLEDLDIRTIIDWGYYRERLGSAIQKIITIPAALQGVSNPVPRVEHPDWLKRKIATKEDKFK

[4] = biological target: Pol2CAT (exonuclease-deficient DNA Pol epsilon catalytic domain);Ctf18-1-8 wild type (Ctf18 C-terminal … (Saccharomyces cerevisiae?;Saccharomyces …, UniProt P21951;P49956;P25559;P38877 1-1192;666-741;1-380;1-133, D290A;E292A|)); test: EMSA supershift; 50 nM DNA; supershift saturated at 125 nM Ctf18-1-8 (lowest tested); DNA binding identical to Pol2CAT alone; EMSA: 25 mM HEPES pH 7.5, 60 mM KCl, 10% glycerol, 1 mM TCEP, 50 nM P1P2*, 20 min on ice, 6% Tris-glycine gel at 4 C; settings: protein: recombinant;recombinant; tags: N-terminal His (pETM14); copies: 1;1;1;1; label: 5' Cy3 on P1; 5' overhang 5 nt on P2 (template); 11 bp duplex
Pol2CAT (exonuclease-deficient DNA Pol epsilon catalytic domain);Ctf18-1-8 wild type (Ctf18 C-terminal …, sequence (P49956 666-741, chain 2 of 2): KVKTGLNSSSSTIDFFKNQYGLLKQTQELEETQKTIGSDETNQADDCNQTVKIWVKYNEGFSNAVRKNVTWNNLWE
Pol2CAT (exonuclease-deficient DNA Pol epsilon catalytic domain);Ctf18-1-8 wild type (Ctf18 C-terminal …, sequence (P38877 whole entry, chain 4 of 2, the tested form may be a part): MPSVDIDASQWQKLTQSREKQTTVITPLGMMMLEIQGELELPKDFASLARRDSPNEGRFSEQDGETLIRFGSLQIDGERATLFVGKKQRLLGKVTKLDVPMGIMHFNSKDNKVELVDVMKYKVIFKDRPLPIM

[5] = biological target: T2, Pol2CAT, the complete catalytic domain of Pol2 (residues 1–1192), exonuclease-deficient (D290A/E292A) (S. cerevisiae, UniProt P21951 1-1192, D290A | E292A); test: cryo-EM structure; 2 μM Ctf18-1-8, Pol2CAT and P1P2* DNA in 20 mM HEPES pH 7.5, 160 mM NaCl, 1 mM TCEP; GraFix sucrose gradient with 0.15% glutaraldehyde; only DNA-free classes refined (Class 1 4.2 Å, Class 2 5.8 Å); settings: both partners purified
T2 construct: Pol2, largest (catalytic) subunit of DNA Pol ϵ, S. cerevisiae, residues 1-1192; An iron-sulfur (4Fe4S) cluster is modelled in the structure; No tag cleavage step is described; also called POL2(1–1192)exo; Pol2 catalytic domain; source: E. coli BL21(DE3)Star, purified (Histrap, Superdex 200, MonoQ); not shown: His tag (from the Histrap column)
T2 sequence (looked up): T1 sequence

Which Kd [1] does the source give for “Ctf18-1-8 module (C-terminus of Ctf18 with Dcc1 and Ctf8), wild type (from UniProt P49956 1-741; P25559 1-380; P38877 1-133) (complex)” here?
The Kd was 40 nM.

For Ctf18-1-8 (from UniProt P49956), which Kd [2] is on record?
Its Kd is 1300 nM.

B1: P1P2* primer-template (dsDNA)
DNA 1: TAACCGCGTTC
DNA 2: CTCTTGAACGCGGTTA
Which results are given for B1?
binding result [3]: binds; binding result [4]: binds

B2: Dcc1 (chain of the recombinant Ctf18-1-8 module) (natural protein, S. cerevisiae)
chain: MSINLHSAPEYDPSYKLIQLTPELLDIIQDPVQNHQLRFKSLDKDKSEVVLCSHDKTWVLKQRKHSNTVLLMREFVPEQPITFDETLLFGLSKPYMDVVGFAKTESEFETRETHGELNLNSVPIYNGELDFSDKIMKRSSTKVIGTLEELLENSPCSALEGISKWHKIGGSVKDGVLCILSQDFLFKALHVLLMSAMAESLDLQHLNVEDTHHAVGKDIEDEFNPYTREIIETVLNKFAVQEQEAENNTWRLRIPFIAQWYGIQALRKYVSGISMPIDEFLIKWKSLFPPFFPCDIDIDMLRGYHFKPTDKTVQYIAKSTLPMDPKERFKVLFRLQSQWDLEDIKPLIEELNSRGMKIDSFIMKYARRKRLGKKTVVTSR
notes: Dcc1, S. cerevisiae; The Dcc1 chain of m2, written alone for the pairs that touch in the structures; also called Dcc1WH3 (its last winged helix domain)
Does B2 bind [5]?
Result: binds
